The values that follow are results of earlier work, collected in patent US20190010499.

In general, pKd refers to the negative decadic logarithm of the Kd, by convention in mol/L.

For the data set, the system named is IL-6. To be noted: binding constant used for modeling; measurement method not stated; nucleic acid type not stated; cited from earlier work.

pKd: −log10 of the molar value.

In the case of Anti-IL-6 aptamer #2 (SL1032), the negative logarithm of the Kd (pKd) was 8.80.
On to Anti-IL-6 aptamer #1 (SL1025), for which the negative-log Kd (pKd) was 9.63.
